Changes are numbered by the printed parent chain.
T1: human CD30 (human, UniProt P28908 19-595)
T1 construct: The same molecule is used for CD30 on HL/ALCL/NHL cell lines; also called huCD30; TNFRSF8
T1 sequence: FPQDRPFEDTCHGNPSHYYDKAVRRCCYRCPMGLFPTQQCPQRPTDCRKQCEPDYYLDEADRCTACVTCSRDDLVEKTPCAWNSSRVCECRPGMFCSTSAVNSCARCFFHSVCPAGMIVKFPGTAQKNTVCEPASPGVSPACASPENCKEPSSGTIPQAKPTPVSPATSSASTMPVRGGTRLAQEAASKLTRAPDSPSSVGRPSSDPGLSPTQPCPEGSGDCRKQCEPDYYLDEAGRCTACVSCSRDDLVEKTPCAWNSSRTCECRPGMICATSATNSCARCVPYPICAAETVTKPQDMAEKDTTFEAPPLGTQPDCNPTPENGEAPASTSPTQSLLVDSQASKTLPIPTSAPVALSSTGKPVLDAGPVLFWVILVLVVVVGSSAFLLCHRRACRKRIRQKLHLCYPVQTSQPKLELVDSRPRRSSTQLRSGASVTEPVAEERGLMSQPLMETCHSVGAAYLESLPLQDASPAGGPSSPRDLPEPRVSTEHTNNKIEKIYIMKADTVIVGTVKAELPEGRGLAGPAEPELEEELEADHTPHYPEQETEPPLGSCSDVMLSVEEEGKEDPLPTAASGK

B1: bsG1-huCD3-FEALxCD30-MDX060-FEAR (bispecific antibody, human IgG1, kappa, lambda)
heavy 1: not shown
light 1: not shown
heavy 2: QVQLQQWGAGLLKPSETLSLTCAVYGGSFSAYYWSWIRQPPGKGLEWIGDINHGGGTNYNPSLKSRVTISVDTSKNQFSLKLNSVTAADTAVYYCASLTAYWGQGSLVTVSSASTKGPSVFPLAPSSKSTSGGTAALGCLVKDYFPEPVTVSWNSGALTSGVHTFPAVLQSSGLYSLSSVVTVPSSSLGTQTYICNVNHKPSNTKVDKRVEPKSCDKTHTCPPCPAPEFEGGPSVFLFPPKPKDTLMISRTPEVTCVVVAVSHEDPEVKFNWYVDGVEVHNAKTKPREEQYNSTYRVVSVLTVLHQDWLNGKEYKCKVSNKALPAPIEKTISKAKGQPREPQVYTLPPSREEMTKNQVSLTCLVKGFYPSDIAVEWESNGQPENNYKTTPPVLDSDGSFFLYSRLTVDKSRWQQGNVFSCSVMHEALHNHYTQKSLSLSPG
light 2: DIQMTQSPTSLSASVGDRVTITCRASQGISSWLTWYQQKPEKAPKSLIYAASSLQSGVPSRFSGSGSGTDFTLTISSLQPEDFATYYCQQYDSYPITFGQGTRLEIKRTVAAPSVFIFPPSDEQLKSGTASVVCLLNNFYPREAKVQWKVDNALQSGNSQESVTEQDSKDSTYSLSSTLTLSKADYEKHKVYACEVTHQGLSSPVTKSFNRGEC
notes: also called bsG1-huCD3xCD30-MDX060
B2: bsG1-huCD3-FEALxCD30-MDX060-FERR (bispecific antibody, human IgG1, kappa, lambda)
heavy 1: not shown
light 1: not shown
heavy 2: B1 heavy 2 with G231R, A260D
light 2: B1 light 2
notes: Bispecific IgG1 made by controlled Fab-arm exchange; also called bsIgG1-huCD3-FEALxCD30-MDX060-FERR; bsG1-huCD3×CD30-MDX060

What was measured:
human CD30 [1] = molecular target: T1, human CD30; test: flow cytometry, DEL cells, experiment N = 2
human CD30 [2] = molecular target: T1, human CD30; test: cell-based or functional assay
human CD30 [3] = molecular target: T1, human CD30; test: flow cytometry, HDLM-2 cells
In short: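 CD3×CD30 bispecific antibodies, 3-fold serial dilutions from 0.0046 to 10 μg/mL, incubated with 3×10⁴ SU-DHL-1 (ALCL) or HDLM-2 (HL) cells for 30 min at 4 °C, then secondary antibody 30 min at 4 °C. Live cells gated by FSC/SSC and TO-PRO-3 exclusion; binding curves fitted by four-parameter sigmoidal regression.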

human CD30 [4] = molecular target: T1, human CD30; test: flow cytometry, L-428 cells, experiment N = 2
human CD30 [5] = molecular target: T1, human CD30; test: flow cytometry, DEL cells (ALCL), range of 3 tests
Protocol: (§1) Cells (3×10⁴ cells/well) were incubated in polystyrene 96-well round-bottom plates (Greiner bio-one, cat. no. 650180) with serial dilutions of antibodies (range 0.0046 to 10 μg/mL in 3-fold dilution steps) in 50 μL staining buffer at 4° C. for 30 min. After washing twice in staining buffer, cells were incubated with 50 μL secondary antibody at 4° C. for 30 min. […] Next, cells were washed twice in staining buffer, resuspended in 100 μL staining buffer supplemented with TO-PRO-3 iodide (Thermo Fisher Scientific; cat. no. T3605; 1:8000 dilution) and analyzed on a FACSCelesta flow cytometer (BD Biosciences, USA). Live cells were gated based on FSC/SSC and absence of TOPRO-3 staining. Binding curves were analyzed by non-linear regression of log-transformed data (sigmoidal dose-response with variable slope, four parameters) using GraphPad Prism V7.02 software (GraphPad Software, San Diego, CA, USA).

human CD30 [6] = molecular target: T1, human CD30; test: flow cytometry, L-428 cells (HL), range of 2 tests
Protocol: as §1

human CD30 [7] = molecular target: T1, human CD30; test: flow cytometry, KM-H2 cells (HL), average of 3 tests
Protocol: as §1

human CD30 [8] = molecular target: T1, human CD30; test: flow cytometry, KARPAS-299 cells (ALCL), range of 2 tests
Protocol: as §1

human CD30 [9] = molecular target: T1, human CD30; test: flow cytometry, KARPAS-299 cells (ALCL), average of 2 tests
Protocol: as §1

human CD30 [10] = molecular target: T1, human CD30; test: flow cytometry, DL-40 cells (ALCL), range of 3 tests
Protocol: as §1

human CD30 [11] = molecular target: T1, human CD30; test: flow cytometry, SUP-M2 cells (ALCL), average of 3 tests
Protocol: as §1

human CD30 [12] = molecular target: T1, human CD30; test: flow cytometry, L-1236 cells (HL), average of 3 tests
Protocol: as §1

human CD30 [13] = molecular target: T1, human CD30; test: flow cytometry, SUP-T1 cells (TLL), average of 2 tests; SUP-T1 cells (TLL), average of 2 tests
Protocol: as §1

human CD30 [14] = molecular target: T1, human CD30; test: flow cytometry, JVM-2 cells (MCL), range of 3 tests
Protocol: as §1

human CD30 [15] = molecular target: T1, human CD30; test: flow cytometry, L-540 cells (HL), average of 3 tests
Protocol: as §1

Row | Binder | EC50 (human CD30 [1]) | T-cell mediated cytotoxicity of Karpas-299 cells, IC50 average (human CD30 [2]) | T-cell mediated cytotoxicity of Karpas-299 cells, maximum lysis average (human CD30 [2]) | EC50 (read off the curve) (human CD30 [3]) | EC50 (human CD30 [4]) | EC50 (human CD30 [5]) | EC50 (human CD30 [6]) | EC50 (human CD30 [7]) | EC50 (human CD30 [8]) | EC50 (human CD30 [9]) | EC50 (human CD30 [10]) | EC50 (human CD30 [11]) | EC50 (human CD30 [12]) | EC50 (human CD30 [13]) | EC50 (human CD30 [14]) | EC50 (human CD30 [15])
1 | B1 | 0.0568 µg/mL | 0.033 µg/mL | 53.7% | ~0.3 µg/mL | 0.0705 µg/mL |  |  |  |  |  |  |  |  |  |  | 
2 | B2 |  | 0.029 µg/mL | 52.3% |  |  | 0.143 to 0.267 µg/mL | 0.174 µg/mL | 0.159 µg/mL | 0.134 to 0.269 µg/mL | 0.202 µg/mL | 0.17 to 0.347 µg/mL | 0.167 µg/mL | 0.202 µg/mL | 0.346 µg/mL | 0.107 to 0.141 µg/mL | 0.323 µg/mL

Reference: patent US20260234255A1 (Genmab, published 2026)
